Source: the DeepSol protein solubility set

Test: soluble on expression in E. coli; label from the status in PepcDB or PDB records

Sequence | soluble on expression in E. coli
MGSDKIHHHHHHMERAGLAALEDALRNGLSEPFCKAIETIGQSNGRLIITGVGKSGHIGAKLAATFASTGTPAFFVHAAEANHGDLGMIGGDDVVLAISKGGESAELRSIINYSRRFSIPLIALTCSENSSLARASDIVLLVPNEQEACPLGLAPTTSTLMQLALGDALAVALLEARNFTAGDFKVFHPGGKLGASLTLVSDIMHTGDRVPLVNKGTAMPEAVGVLSRKHFGCVGILDEDGRLCGIVTEGDMARNLSRNLAELVVDDIMTRSPKTVKKSVLATSALATLEKFHIGALIVVDDDNRPIGLVHFHDLLRIGVA | not soluble
MLCSRYFTSSLFLWGEALPTLLEEFLNEVEKMLKNQVNTRRIHQLLKELDDPLLENKDLEEKLQAFLDYVKEIPNLPEARKRYRIQKSLEMIEKLRSWFLIDYLECSGEEVDLSTDIQYAKGVGPNRKKKLKKLGIETLRDLLEFFPRDYEDRRKIFKLNDLLPGEKVTTQGKIVSVETKKFQNMNILTAVLSDGLVHVPLKWFNQDYLQTYLKQLTGKEVFVTGTVKSNAYTGQYEIHNAEVTPKEGEYVRRILPIYRLTSGISQKQMRKIFEENIPSLCCSLKETLPERILEKRKLLGVKDAYYGMHFPKTFYHLEKARERLAYEELFVLQLAFQKIRKEREKHGGIPKKIEGKLAEEFIKSLPFKLTNAQKRAHQEIRNDMISEKPMNRLLQGDVGSGKTVVAQLAILDNYEAGFQTAFMVPTSILAIQHYRRTVESFSKFNIHVALLIGATTPSEKEKIKSGLRNGQIDVVIGTHALIQEDVHFKNLGLVIIDEQHRFGVKQREALMNKGKMVDTLVMSATPIPRSMALAFYGDLDVTVIDEMPPGRKEVQTMLVPMDRVNEVYEFVRQEVMRGGQAFIVYPLIEESDKLNVKSAVEMYEYLSKEVFPEFKLGLMHGRLSQEEKDRVMLEFAEGRYDILVSTTVIEVGIDVPRANVMVIENPERFGLAQLHQLRGRVGRGGQEAYCFLVVGDVGEEAMERLRFFTLNTDGFKIAEYDLKTRGPGEFFGVKQHGLSGFKVADLYRDLKLLEWAREDVQEIDVEGIELPEEIKLIEVG | soluble
MTNQNVLLNISGVKFVLRIPNAVNLSLINREYEAFNNAQAYRAGLNVETPVLDAKSGVKLTRYLENSNTLSQIQLNEQSCLSQVVNNLYRLHNSEFVFRNVFSVFDEFRQYFSLLENKSAFYQADSRMDKLSAVFWQFEEINKEVILRPCHNDLVPENMLLQDDRLFFIDWEYSGLNDPLFDIATIIEEAHLSKEAADFLLETYCNQTNKYHKTEFQIAHKRLKIHRFCQNVLWFLWTKVKEEHGENFGDYALKRLDAAFKLLEELPLEHHHHHH | not soluble
MVKLENSRKPEKISNKNIPMSDFVVNLDHGDPTAYEEYWRKMGDRCTVTIRGCDLMSYFSDMTNLCWFLEPELEDAIKDLHGVVGNAATEDRYIVVGTGSTQLCQAAVHALSSLARSQPVSVVAAAPFYSTYVEETTYVRSGMYKWEGDAWGFDKKGPYIELVTSPNNPDGTIRETVVNRPDDDEAKVIHDFAYYWPHYTPITRRQDHDIMLFTFSKITGHAGSRIGWALVKDKEVAKKMVEYIIVNSIGVSKESQVRTAKILNVLKETCKSESESENFFKYGREMMKNRWEKLREVVKESDAFTLPKYPEAFCNYFGKSLESYPAFAWLGTKEETDLVSELRRHKVMSRAGERCGSDKKHVRVSMLSREDVFNVFLERLANMKLIKSIDL | soluble
MGMLDVSLHKITQKSQSLLHRTADRHLRLAVTGLSGAGKTAFITGLVNQLLNSGAVSTVSHSRQNGLPLWQVSREQRLLGVKRAMQPDLEIASFDYQGAMLALTSNPPTWPESTRTISELRLAIKYRPEKGLLAKFADAATLYLDIVDYPGEWLLDLPMLRQSYIEWCTTQQQRIAVLKSSPLYAGFETSLNALNLAAMADESELKRLADQYQQLLHDLVHVQGYYQAQPGRMLLPGEWQGAPLLAFFPLLSVTNAQWSNLKQSDKHSAFHVLEKRYQEYVAKVVKPFYKQHFAGFDRQVVLVDCFSALNRGKSQFEDMGAALNAIMESFQYGQSSYLRRLFAPRIDRLLFAASKVDHVTRDQQSHVLSLLTDMLKHSQHFAGFEGCKVETMAISAIKATRHGMVTTQEGDVEVVQGTGLNGQALTLFPGEVPTRLPEPDFWREQGFNFIGFAPPDNTNVDPSSVHFDHIRLDHLLQYLVGDKLE | not soluble
MGSDKIHHHHHHMSTVQDASSVGSLFGAEAAKTSKSGSSDTQDRFLSLLVAQMKNQDPLNPLDNAEVTSQMAQLSTVEGIENMNKSLEALASSMGASQMSQAANLIGHAVLVPGNAVGPGQLENLMGFELTRPADKVTLDIHDAGGNLVRSVDLGPRDAGVNVVAWDGLTGSGAVAPAGAYSFKVSAVQGGQAQSSIALNVGLVNSVSQNSEGVQLNLAGNGSVGYADIREIF | not soluble
MATIIPTAWQPFKSETPLTTFPFRFPAEWEPQSAILIAWPHANTDWSAHLADVEETYIALVAAITRFQMVIICVLDDDLQTYTEARLRSASVAMQQVRFTVASYNDTWLRDSGPITLIGTNRDFRLLDFRFTGWGGKFEAKADDQLVSVLHANGLFKNTQMHSINFALEGGAIETDGAGTLLTTWRCLHERHPQRTRKTLDANLTAWLAQNRVLWLEHGYLEGDDTDAHIDTLARFASTDSIVYQSCDNTTDSHYAELQAMANELTALRTTEGRAYRLFPLPWTKPILDQDRRLPASYANFLIIEGAVLMPTYDDPADTIAQSVLAEAFP | not soluble
MFREAELRNGLRVIAEVVPGARSVALGYFVKTGARDETKEESGVSHFLEHMVFKGPEDMDALAVNRAFDRMGAQYNAFTSEEATVYYGAVLPEFAYDLLGLFAKLLRPALREEDFQTEKLVILEEIARYQDRPGFMAYEWARARFFQGHPLGNSVLGTRESITALTREGMAAYHRRRYLPKNMVLAATGRVDFDRLLAEAERLTEAWPEGEAERAYPPLTPAFGVEERPYEKARALYLVALFPGVAYQEEARFPGQVLAHLLGEEGSGRLHFALVDKGLAEVASFGLEEADRAGTFHAYVQADPARKGEVLAVLQEELDRLGREGVGEEEVERAKTPLATGLVFAGETPMQRLFHLGMEYLYTGRYLSLEEVKARVQRVTSREVNALLERGFLEKGLYYLVLPHGA | soluble
MSLEKKDNVFTFGNALSLYYKDYETPLIINTDDINQFKRSDKFYVLGNEFNAEIKYPYFMSSLYCIESGDIVMVYNAVELIQRPRLIIKALMALRKKYGFSKLIYLPGIGDPYIIPVLVYAGADLFDDTYIKEESINNIKYTMMGKTKSSDNNINDNLKFANDIISLLRSSIKTGTLREFVEKFQYSSRAIEMLRIIDNDYFSDYSMVFPVYTPYIKANTIESLNRPDIVSYRNYIKNDYSKPDVENLLILPCSAKKPYSKSKSHKKILSRIEKYRKYIHELIVTSPVGLVPRELESMYPAAFYDIPVIGLWYEDEKKMINDLLKSYLSKNRYKNIIAYIDEDLNFIKSSGNIILIEGNILSEEKLSELESTLRDLTINSPKMDHLFNYKSMLSYQFGTWIKDYLDDIKISRSYNMDMVTRNGRALFVFNEKLGRFTINRNGAGIFLNAGKKIVYIDDFKPTSYVFNAGIKDATDDIKPGDEVIIVHNNEIRGVGTALISYRAMIDLDHGAGVKVREGHHHHHH | soluble
SNAMSLEKLDTNTFEQLIYDEGKACLVMFSRKNCHVCQKVTPVLEELRLNYEESFGFYYVDVEEEKTLFQRFSLKGVPQILYFKDGEYKGKMAGDVEDDEVEQMIADVLED | soluble
MTSYSLEDFNTPLECAPLARWERKRKEQLDRTSKTPNKTPQGDRFIPNRNVMNIEVSRLNLQQEYYGKENNQNSSSLLDSHMDNVEWNSGKDSPACHHYQSALASSLLQNSYHEEHPQSKILTFKQKAPKPQEGYVNSLKVLYSQNMPQISEQRKRMIRHIPQTPDRILDAPELVDDYYLNLLDWNHENILAVALGSSVYLWNASTGDIQELCNVSQDEMICSVSWVPDGHHLAVGTSMKDVQLWDTQRGRQVRKMHSHSSRVGCLAWNGPILSSGSRDTTIHHHDVRIAQHHVETLRGHEQEVCGLKWNVDGSQLASGGNDNLLMIWDHFHSNQPKYRLDHHHAAVKAIAWCPWQTHLLASGGGTADRTIKFWNTTTGACLQSIDTKSQVCALIWNRHDKEIVSSHGFSQNQLIVWKYPSMVKMAELTGHTSRVLHLSLSPDGQTVVSGAGDETLRFWRVFEASESKLKSSNKTLGHSQKSIMRTCNIR | soluble
GGGVMHYTDKAALPADGEAREVAALFDTWNAALATGNPHKVADLYAPDGVLLPTVSNEVRASREQIENYFEMFLTKKPKGVINYRTVRLLDDDSAVDAGVYTFTLTDKNGKKSDVQARYTFVYEKRDGKWLIINHHSSAMPEVDTATATAAVTKAK | soluble
